Patent US20250250312A1, “BIFUNCTIONAL PEPTIDE WITH MU[…] VIRUS BINDING PROPERTIES” (priority 2022, published 2025)

These binders were tested against T1, receptor binding domain (RBD) of SARS-CoV-2 wildtype (2019-nCoV) (SARS-CoV-2), P0DTC2.

Row | Binder | Kd
1 | EEQAKTFLDCFNHEAEDLFYQSS (modifications not checked) [p4C10] | 0.331 µM
2 | EEQAKTFLCKFNHEAEDLFYQSS (modifications not checked) [p4C9] | 3.23 µM
3 | EEQAKTFLDKFNHEAEDCFYQCS (modifications not checked) [p4C18, 22] | 0.218 µM
4 | EEQAKTCLDKFNHEAEDLFYQSS (modifications not checked) [p4C7] | 1.94 µM
5 | EEQAKTFLDKCNHEAEDLFYQSS (modifications not checked) [p4C11] | 0.012 µM
6 | EEQACTFLDKFNHEAEDLFYQSS (modifications not checked) [p4C5] | 2.14 µM
7 | EECAKTFLDKFNHEAEDLFYQSS (modifications not checked) [p4C3] | 0.042 µM
8 | EEQAKTFLDKFNHECEDLCYQSS (modifications not checked) [p4C15, 19] | 0.238 µM
9 | ECQAKTFLDKFNHEAEDLFYQSS (modifications not checked) [p4C2] | 0.034 µM
10 | EEQAKTFLDKCNHECEDLFYQSS (modifications not checked) [p4C11, 15] | 0.068 µM
11 | EEQAKTFCDKFNHEAEDLFYQSS (modifications not checked) [p4C8] | 0.281 µM
12 | EEQCKTFCDKFNHEAEDCFYQCS (modifications not checked) [p4C4, 8, 18, 22] | 0.4 µM
13 | EEQCKTFLDKFNHEAEDLFYQSS (modifications not checked) [p4C4] | 1.3 µM
14 | EEQCKTFCDKFNHEAEDLFYQSS (modifications not checked) [p4C4, 8] | 0.059 µM
15 | EEQAKTFLDKFNCEAEDLFYQSS (modifications not checked) [p4C13] | 0.028 µM
16 | EEQAKTFCDKFCHEAEDLFYQSS (modifications not checked) [p4C8, 12] | 0.047 µM
17 | EEQAKTFLDKFCHEAEDLFYQSS (modifications not checked) [p4C12] | 2.05 µM

Target: T1, receptor binding domain (RBD) of …
Remark: another data set of the same source

Row | Binder | Kd
18 | EEQAKTFKDKFDHEAEDKFYQDSGLGKGDFR (modifications not checked) [p6(K)8,18(D)12,22] | 10 µM

Target: T1, receptor binding domain (RBD) of …
Remark: another data set of the same source

Row | Binder | Kd
19 | EAAAKEEQAKTFLDKFNHEAEDLFYQSCGLGKGDFRC (modifications not checked) [p6-rigid-dis] | 5.13 µM
20 | EAAAKEEQAKTFLDKFNHEAEDLFYQSSGLGKGDFR (modifications not checked) [p6-rigid] | 4.53 µM
21 | EEQAKTFLDKFNHEAEDLFYQSCGLGKGDFRC (modifications not checked) [p6-dis] | 2.6 µM

The binders below were run against receptor binding domain (RBD) of SARS-CoV-2 delta variant (B.1.617.2) (SARS-CoV-2), P0DTC2.

Row | Binder | Kd
22 | EEQAKTFLDKFNHEAEDLFYQSSGLGKGDFR (modifications not checked) [p6 peptide] | 0.19 µM

Each binder was assayed against receptor binding domain (RBD) of SARS-CoV-2 alpha variant (B.1.1.7) (SARS-CoV-2), P0DTC2.

Row | Binder | Kd
23 | EEQAKTFLDKFNHEAEDLFYQSSGLGKGDFR (modifications not checked) [p6 peptide] | 0.32 µM
